Experimental data as given in US20240018513A1, “SYNTHETIC INTRONS FOR TARGETED GENE EXPRESSION” (FRED HUTCHINSON CANCER CENTER, priority 2020, published 2024).

What was measured:
SF3B1-mutant K562 cells = assay: Mini-screen: pooled synthetic intron mini-library in HSV-TK, GCV treatment, full-length intron sequencing from genomic DNA; assay type: cell-based; details: genotype K700E (SF3B1+/K700E) K562; GCV 100 ug/mL; day 6; vector hPGK-PuroR-P2A-HSV-TK
Description: (§1) Therefore, a massively parallel splicing assay was developed to map and functionally interrogate key sequence features within the synthetic intron. First, a pilot mini-library of eight synthetic introns was synthesized, seven of which were much shorter (lengths of 100-158 nt) than the parent synthetic intron (synMTERFD3i1-250), and each with one or more perturbations to potentially critical features (FIG. 2E). This mini-library was cloned into HSV-TK, introduced into WT or SF3B1-mutant K562 cells with a lentiviral vector at a low multiplicity of infection, and treated with GCV. Relative depletion of each construct was measured by high-throughput sequencing of the entire introns from genomic DNA after six days of treatment (TABLE 1).
(§2) Each synthetic intron used in the mini-library was ordered individually as a gBlock (Integrated DNA Technologies), consisting of the desired intron flanked by homology arms for cloning (5′ arm: […] (SEQ ID NO:158); 3′ arm: […] (SEQ ID NO:159; TABLE 3). The gBlocks were then mixed in equal proportions before being cloned into hPGK-PuroR-P2A-HSV-TK using a previously published strategy for pooled cloning (Thomas, J. D. et al. RNA isoform screens uncover the essentiality and tumor-suppressor activity of ultraconserved poison exons. Nature genetics 52, 84-94 (2020), incorporated herein by reference in its entirety). This intron mix was then amplified using NEBNext High Fidelity Ready Mix (New England Biolabs) and purified using 1.8×AMPure XP SPRI beads (Beckman Coulter). The backbone for the library was amplified using Q5 polymerase (New England Biolabs). The library was transformed and amplified using Endura ElectroCompetent Cells (Lucigen, 60242-2) and large LB plates. The library was maxiprepped using a Macherey-Nagel MaxiPrep kit (Thermo Fisher Scientific, Cat 740414.10).
(§3) WT or SF3B1-mutant K562 cells were infected with lentivirus encoding the mini-library at an MOI of 0.3 and untreated or treated with GCV (100 ug/mL) for 6 days. Genomic DNA was collected at day 6 and the resulting Illumina libraries were sequenced with 2×150 bp reads (Illumina MiSeq). Depletion/enrichment of each construct was estimated as follows. For each sample, reads were normalized to the total reads mapped. The relative fraction of reads mapping to each intron was then estimated by dividing the numbers of normalized reads mapped to an intron by the total reads mapped in the sample. The standard deviation was calculated using the sample proportion P for each intron (σ=sqrt [P(1−P)/n]). A fold-change was calculated for each intron by dividing the proportion of the intron in the treated GCV samples by the fraction of the intron in the untreated samples. Error propagation was used to estimate the standard deviation. The final relative fold-changes were computed by normalizing fold-changes such that the fold-change of synMTERFD3i1-250 in the pilot screen was identical to the experimentally measured fold-change in a single-construct experiment (FIG. 2C, 100 μg/mL of GCV).

WT K562 cells = assay: as above; assay type: cell-based; details: genotype WT (SF3B1+/+) K562; GCV 100 ug/mL; day 6; vector hPGK-PuroR-P2A-HSV-TK
Description: as §1, §2, §3

B1: intron_2258: 100 nt MTERFD3 intron 1-derived synthetic intron, deletion 15to65; SEQ ID NO 57/65 (nucleic acid)
DNA 1: GTGAGTCGCCCCCTTAGGCCTTGTAGGCCATGGTAAGGCATTTCTATGTTTTATTTTACTTTGTCTTTATCCTAAAATGCCATTGGCAAGTTTATTGCAG
DNA 2: GTGAGTCGCCCCCTTAGGCCTTGTAGGCCATGGTAAGGCATTTCTATGTTTTATTTTACTTTGTCTTTATCCTAAAATGCCATTGGCAAGTTTATTGCAG
modifications: expressed or natural sequence
fold-change (estimated fold-change in intron abundance in gDNA) (SF3B1-mutant K562 cells): 0.4996 | fold-change (estimated fold-change in intron abundance in gDNA) (WT K562 cells): 1.279

B2: intron_9600: 158 nt synthetic intron, insertion 89_TACTAACA consensus branchpoint; SEQ ID NO 62/70 (nucleic acid)
DNA 1: GTGAGTCGCCCCCTTCCTCTGCTCCGAGAGGGAAATGGGAATTAGGGTGGTGGCAGAGCCCAAAGAGGCCTTGTAGGCCATGGTAAGGCTACTAACAATTTCTATGTTTTATTTTACTTTGTCTTTATCCTAAAATGCCATTGGCAAGTTTATTGCAG
DNA 2: GTGAGTCGCCCCCTTCCTCTGCTCCGAGAGGGAAATGGGAATTAGGGTGGTGGCAGAGCCCAAAGAGGCCTTGTAGGCCATGGTAAGGCTACTAACAATTTCTATGTTTTATTTTACTTTGTCTTTATCCTAAAATGCCATTGGCAAGTTTATTGCAG
fold-change (estimated fold-change in intron abundance in gDNA) (SF3B1-mutant K562 cells): 0.2356 | fold-change (estimated fold-change in intron abundance in gDNA) (WT K562 cells): 1.112

B3: intron_13121: 150 nt control synthetic intron, GT_to_CC + AG_to_CC splice site mutations; SEQ ID NO 56/64 (nucleic acid)
DNA 1: CCGAGTCGCCCCCTTCCTCTGCTCCGAGAGGGAAATGGGAATTAGGGTGGTGGCAGAGCCCAAAGAGGCCTTGTAGGCCATGGTAAGGCATTTCTATGTTTTATTTTACTTTGTCTTTATCCTAAAATGCCATTGGCAAGTTTATTGCCC
DNA 2: CCGAGTCGCCCCCTTCCTCTGCTCCGAGAGGGAAATGGGAATTAGGGTGGTGGCAGAGCCCAAAGAGGCCTTGTAGGCCATGGTAAGGCATTTCTATGTTTTATTTTACTTTGTCTTTATCCTAAAATGCCATTGGCAAGTTTATTGCCC
fold-change (estimated fold-change in intron abundance in gDNA) (SF3B1-mutant K562 cells): 0.8961 | fold-change (estimated fold-change in intron abundance in gDNA) (WT K562 cells): 1.226

B4: intron_2790: 150 nt synthetic intron, mutation 148_AtoG (canonical 3′ss); SEQ ID NO 59/67 (nucleic acid)
DNA 1: GTGAGTCGCCCCCTTCCTCTGCTCCGAGAGGGAAATGGGAATTAGGGTGGTGGCAGAGCCCAAAGAGGCCTTGTAGGCCATGGTAAGGCATTTCTATGTTTTATTTTACTTTGTCTTTATCCTAAAATGCCATTGGCAAGTTTATTGCGG
DNA 2: GTGAGTCGCCCCCTTCCTCTGCTCCGAGAGGGAAATGGGAATTAGGGTGGTGGCAGAGCCCAAAGAGGCCTTGTAGGCCATGGTAAGGCATTTCTATGTTTTATTTTACTTTGTCTTTATCCTAAAATGCCATTGGCAAGTTTATTGCGG
fold-change (estimated fold-change in intron abundance in gDNA) (SF3B1-mutant K562 cells): 0.7611 | fold-change (estimated fold-change in intron abundance in gDNA) (WT K562 cells): 1.042

B5: intron_4095: 150 nt synthetic intron, 138_AtoC-139_GtoC (cryptic 3′ss at −11 removed); SEQ ID NO 60/68 (nucleic acid)
DNA 1: GTGAGTCGCCCCCTTCCTCTGCTCCGAGAGGGAAATGGGAATTAGGGTGGTGGCAGAGCCCAAAGAGGCCTTGTAGGCCATGGTAAGGCATTTCTATGTTTTATTTTACTTTGTCTTTATCCTAAAATGCCATTGGCACCTTTATTGCAG
DNA 2: GTGAGTCGCCCCCTTCCTCTGCTCCGAGAGGGAAATGGGAATTAGGGTGGTGGCAGAGCCCAAAGAGGCCTTGTAGGCCATGGTAAGGCATTTCTATGTTTTATTTTACTTTGTCTTTATCCTAAAATGCCATTGGCACCTTTATTGCAG
fold-change (estimated fold-change in intron abundance in gDNA) (SF3B1-mutant K562 cells): 0.2637 | fold-change (estimated fold-change in intron abundance in gDNA) (WT K562 cells): 0.3305

B6: intron_8499: 150 nt synthetic intron, 89/95/102/107 AtoG branchpoint ablation; SEQ ID NO 61/69 (nucleic acid)
DNA 1: GTGAGTCGCCCCCTTCCTCTGCTCCGAGAGGGAAATGGGAATTAGGGTGGTGGCAGAGCCCAAAGAGGCCTTGTAGGCCATGGTAAGGCGTTTCTGTGTTTTGTTTTGCTTTGTCTTTATCCTAAAATGCCATTGGCAAGTTTATTGCAG
DNA 2: GTGAGTCGCCCCCTTCCTCTGCTCCGAGAGGGAAATGGGAATTAGGGTGGTGGCAGAGCCCAAAGAGGCCTTGTAGGCCATGGTAAGGCGTTTCTGTGTTTTGTTTTGCTTTGTCTTTATCCTAAAATGCCATTGGCAAGTTTATTGCAG
fold-change (estimated fold-change in intron abundance in gDNA) (SF3B1-mutant K562 cells): 0.2767 | fold-change (estimated fold-change in intron abundance in gDNA) (WT K562 cells): 1.15
